Ratio to parent data for one variant are collected here from PMC13462943.

First the molecules themselves.
B1: GLP methyltransferase domain (aa 1001-1266), wild type [human] / itself (parent)
chain: DRPSPVERIVSRDIARGYERIPIPCVNAVDSEPCPSNYKYVSQNCVTSPMNIDRNITHLQYCVCIDDCSSSNCMCGQLSMRCWYDKDGRLLPEFNMAEPPLIFECNHACSCWRNCRNRVVQNGLRARLQLYRTRDMGWGVRSLQDIPPGTFVCEYVGELISDSEADVREEDSYLFDLDNKDGEVYCIDARFYGNVSRFINHHCEPNLVPVRVFMAHQDLRFPRIAFFSTRLIEAGEQLGFDYGERFWDIKGKLFSCRCGSPKCRHS

In this experiment the parent is B1. The experiment is described as follows: native mass spectrometry (nESI-MS). Conditions: with itself; parent: 1; read off a plot.
Regarding chain 1 C73Y, the ratio to parent was 0.34.
